Data on two molecules can be found in patent US20190256843A1 (AGILENT TECHNOLOGIES, published 2019).

In this assay the target is T1, negative control phosphoprotein AGPADAPAGAVVGGG[S^P/S]PRGRPGPVPAPGLLA fused to N-terminal split mCherry (central residue (position 16 of SEQ ID NO:59) printed as [S^P/S]: phosphoserine with SepOTSλ, serine with tRNA^supD).
T1 construct: also called n.c; (14-3-3 experiment); negative control for the 14-3-3 experiment; not shown: N-terminal split mCherry and linker
T1 chain: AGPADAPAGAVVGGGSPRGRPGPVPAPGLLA
Description: clonal BiFC split mCherry (negative control of the 14-3-3 experiment).

B1: human 14-3-3β fused to C-terminal split mCherry (C-mCh) with C-terminal 6xHis tag (other)
chain: MTMDKSELVQKAKLAEQAERYDDMAAAMKAVTEQGHELSNEERNLLSVAYKNVVGARRSSWRVISSIEQKTERNEKKQQMGKEYREKIEAELQDICNDVLELLDKYLIPNATQPESKVFYLKMKGDYFRYLSEVASGDNKQTTVSNSQQAYQEAFEISKKEMQPTHPIRLGLALNFSVFYYEILNSPEKACSLAKTAFDEAIAELDTLNEESYKDSTLIMQLLRDNLTLWTSENQGDEGDAGEGENELGAAAGGSGGALKGEIKQRLKLKDGGHYDAEVKTTYKAKKPVQLPGAYNVNIKLDITSHNEDYTIVEQYERAEGRHSTGGMDELYKHHHHHH
notes: also called 14-3-3 isoform β
Take B1: the binding result was “no binding”.

B2: human 14-3-3σ fused to C-terminal split mCherry (C-mCh) with C-terminal 6xHis tag (other)
chain: MERASLIQKAKLAEQAERYEDMAAFMKGAVEKGEELSCEERNLLSVAYKNVVGGQRAAWRVLSSIEQKSNEEGSEEKGPEVREYREKVETELQGVCDTVLGLLDSHLIKEAGDAESRVFYLKMKGDYYRYLAEVATGDDKKRIIDSARSAYQEAMDISKKEMPPTNPIRLGLALNFSVFHYEIANSPEEAISLAKTTFDEAMADLHTLSEDSYKDSTLIMQLLRDNLTLWTADNAGEEGGEAPQEPQSELGAAAGGSGGALKGEIKQRLKLKDGGHYDAEVKTTYKAKKPVQLPGAYNVNIKLDITSHNEDYTIVEQYERAEGRHSTGGMDELYKHHHHHH
notes: also called 14-3-3 isoform σ
For the molecule B2, the binding result is given as “no binding”.
